From patent publication US20170355774A1 (Regeneron, published 2017)
Each block holds one binder with its values, some of them ahead of it.

Tests used:
[1] = biological target: T1, human GITR (amino acids M1-V241, NCBI Accession #NP_004186.1) expressed on cells (human, UniProt Q9Y5U5 26-241); experiment: cell-based or functional assay
T1 sequence: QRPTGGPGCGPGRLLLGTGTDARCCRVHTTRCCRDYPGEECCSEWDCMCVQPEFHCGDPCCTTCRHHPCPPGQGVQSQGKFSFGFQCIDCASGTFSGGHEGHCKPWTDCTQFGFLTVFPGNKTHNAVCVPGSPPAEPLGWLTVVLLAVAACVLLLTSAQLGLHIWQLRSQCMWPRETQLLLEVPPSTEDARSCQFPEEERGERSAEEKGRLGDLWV

[2] = biological target: T1, human GITR (amino acids M1-V241, NCBI …); experiment: cell-based or functional assay; remark: listed apart in the source
[3] = biological target: T1, human GITR (amino acids M1-V241, NCBI …); experiment: cell-based or functional assay; remark: listed apart in the source
hGITR.mmh = biological target: T2, hGITR.mmh (human); experiment: SPR 37C, mAb capture
T2 construct: soluble monomeric construct; also called human (h) GITR.mmh; monomeric human GITR
T2 chain: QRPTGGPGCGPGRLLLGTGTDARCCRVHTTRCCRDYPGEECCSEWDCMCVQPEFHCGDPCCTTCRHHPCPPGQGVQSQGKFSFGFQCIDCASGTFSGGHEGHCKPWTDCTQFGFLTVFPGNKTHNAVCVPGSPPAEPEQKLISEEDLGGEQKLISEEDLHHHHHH

hGITR.mFc = biological target: T3, hGITR.mFc (human); experiment: SPR 37C, mAb capture
T3 construct: soluble dimeric construct with mouse Fc; also called dimeric human GITR
T3 chain: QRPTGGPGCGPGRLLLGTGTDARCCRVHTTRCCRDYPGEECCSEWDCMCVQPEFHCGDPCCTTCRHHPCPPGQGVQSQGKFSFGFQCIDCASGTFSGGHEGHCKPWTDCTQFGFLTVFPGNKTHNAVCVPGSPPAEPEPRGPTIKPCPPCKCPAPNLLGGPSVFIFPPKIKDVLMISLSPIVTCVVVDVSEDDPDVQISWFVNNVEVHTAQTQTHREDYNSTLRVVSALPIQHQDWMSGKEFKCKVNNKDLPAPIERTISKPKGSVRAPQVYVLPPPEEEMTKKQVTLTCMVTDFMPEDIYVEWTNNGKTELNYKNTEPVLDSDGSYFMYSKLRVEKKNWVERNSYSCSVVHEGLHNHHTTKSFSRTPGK

mfGITR.mmh = biological target: T4, mfGITR.mmh (Macaca fasicularis); experiment: SPR 37C, mAb capture
T4 construct: soluble monomeric construct; also called Macaca fasicularis (mf) GITR.mmh; cynomolgus GITR protein
T4 chain: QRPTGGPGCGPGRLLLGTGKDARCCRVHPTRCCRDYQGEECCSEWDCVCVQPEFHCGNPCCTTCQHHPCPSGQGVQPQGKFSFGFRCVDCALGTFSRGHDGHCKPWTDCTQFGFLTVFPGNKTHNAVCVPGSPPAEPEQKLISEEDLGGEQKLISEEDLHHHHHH

[4] = biological target: T1, human GITR (amino acids M1-V241, NCBI …); experiment: cell-based or functional assay; remark: listed apart in the source
[5] = biological target: T1, human GITR (amino acids M1-V241, NCBI …); experiment: ECL cell binding, hGITR/HEK293-D9
Outline: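 Cells blocked with 2% BSA, then antibody dilutions from 1.7 pM to 100 nM added 1 h at RT. Bound antibody detected with SULFO-TAG anti-human kappa antibody, electrochemiluminescence read, RLU fitted by four-parameter logistic; signal at 100 nM on hGITR cells versus parental cells also recorded.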

[6] = biological target: T1, human GITR (amino acids M1-V241, NCBI …); experiment: cell-based or functional assay; remark: listed apart in the source

EC50, hGITR activation, NF-kB-Luc, FcgR anchored [1]: 0.04 nM | Fold Activation over basal signal, NF-kB-Luc, FcgR anchored [1]: 8 fold | IC50, blocking of hGITRL stimulation, NF-kB-Luc, FcgR anchored [1]: 0.2 nM | % Activation, NF-kB-Luc, non-anchored [2]: 70% | % Blocking, NF-kB-Luc, non-anchored [2]: -2% | EC50, hGITR activation, NF-kB-Luc, non-anchored [2]: 1 nM | fold activation, T-cell proliferation, plate-bound Ab 10.6 nM, donor 1 [3]: 0 fold | fold activation, T-cell proliferation, plate-bound Ab 10.6 nM, donor 2 [3]: 2 fold | fold activation, T-cell proliferation, plate-bound Ab 10.6 nM, donor 3 [3]: 2 fold | fold activation, T-cell proliferation, plate-bound Ab 10.6 nM, donor 4 [3]: 2 fold | fold activation, T-cell proliferation, plate-bound Ab 10.6 nM, donor 5 [3]: 2 fold | fold activation, T-cell proliferation, plate-bound Ab 10.6 nM, donor 6 [3]: 12 fold | fold activation, T-cell proliferation, plate-bound Ab 10.6 nM, donor 7 [3]: 1 fold | fold activation, T-cell proliferation, plate-bound Ab 10.6 nM, donor 8 [3]: 0 fold | fold activation, T-cell proliferation, plate-bound Ab 10.6 nM, mean [3]: 3 fold | Kd (hGITR.mmh): 45.7 nM | koff (hGITR.mmh): 0.014 s⁻¹ | kon (hGITR.mmh): 307000 M⁻¹ s⁻¹ | t½ (hGITR.mmh): 0.8 min | Kd (hGITR.mFc): 0.847 nM | koff (hGITR.mFc): 0.00135 s⁻¹ | kon (hGITR.mFc): 1.6e+06 M⁻¹ s⁻¹ | t½ (hGITR.mFc): 8.5 min | Kd (mfGITR.mmh): 41.7 nM | koff (mfGITR.mmh): 0.00765 s⁻¹ | kon (mfGITR.mmh): 183000 M⁻¹ s⁻¹ | t½ (mfGITR.mmh): 1.5 min | fold activation, T-cell proliferation, 33 nM, FcgR anchored, donor 1 [4]: 1 fold | fold activation, T-cell proliferation, 33 nM, FcgR anchored, donor 2 [4]: 1.3 fold | fold activation, T-cell proliferation, 33 nM, FcgR anchored, donor 3 [4]: 1.3 fold | fold activation, T-cell proliferation, 33 nM, FcgR anchored, donor 4 [4]: 1.6 fold | fold activation, T-cell proliferation, 33 nM, FcgR anchored, donor 5 [4]: 1.5 fold | fold activation, T-cell proliferation, 33 nM, FcgR anchored, mean [4]: 1.3 fold | Average Signal (RLU) at 100 nM [5]: 7500 RLU | EC50 [5]: 8 nM | fold activation, T-cell proliferation, 22 nM, non-anchored, donor 1 [6]: 0.7 fold | fold activation, T-cell proliferation, 22 nM, non-anchored, donor 2 [6]: 1.1 fold | fold activation, T-cell proliferation, 22 nM, non-anchored, donor 3 [6]: 0.8 fold | fold activation, T-cell proliferation, 22 nM, non-anchored, donor 4 [6]: 0.8 fold | fold activation, T-cell proliferation, 22 nM, non-anchored, mean [6]: 0.9 fold
B1: H4H14475P (antibody, human IgG4, V domains shown)
VH: QVQLVESGGGVVQPGRSLRLSCAASGTIFSTHGMHWVRQAPGKGLEWVAVISYDGNKKYYAGSVKGRFTISRDNSKNTLYLQMNDVRSEDTAVYHCTTDITGITDYWGQGTLVTVSS
VL: DIQMTQSPSSLSASVGDRVTITCRASQGIGNDLGWYQQKLGKAPKRLIYAASSLESGVPSRFSGSGSGTEFILTISSLQAEDFATYYCLQHNGFPTFGQGTKVEIK
notes: human IgG4 (H4H)

% Activation, NF-kB-Luc, non-anchored [2]: 45% | % Blocking, NF-kB-Luc, non-anchored [2]: 70% | EC50, hGITR activation, NF-kB-Luc, non-anchored [2]: 0.8 nM | IC50, blocking of hGITRL stimulation, NF-kB-Luc, non-anchored [2]: 2.3 nM | fold activation, T-cell proliferation, plate-bound Ab 10.6 nM, donor 1 [3]: 1 fold | fold activation, T-cell proliferation, plate-bound Ab 10.6 nM, donor 2 [3]: 4 fold | fold activation, T-cell proliferation, plate-bound Ab 10.6 nM, donor 3 [3]: 4 fold | fold activation, T-cell proliferation, plate-bound Ab 10.6 nM, donor 4 [3]: 12 fold | fold activation, T-cell proliferation, plate-bound Ab 10.6 nM, donor 5 [3]: 4 fold | fold activation, T-cell proliferation, plate-bound Ab 10.6 nM, donor 6 [3]: 14 fold | fold activation, T-cell proliferation, plate-bound Ab 10.6 nM, donor 7 [3]: 4 fold | fold activation, T-cell proliferation, plate-bound Ab 10.6 nM, donor 8 [3]: 1 fold | fold activation, T-cell proliferation, plate-bound Ab 10.6 nM, mean [3]: 5 fold | Kd (hGITR.mmh): 32.7 nM | koff (hGITR.mmh): 0.00738 s⁻¹ | kon (hGITR.mmh): 225000 M⁻¹ s⁻¹ | t½ (hGITR.mmh): 1.6 min | Kd (hGITR.mFc): 1.08 nM | koff (hGITR.mFc): 0.00181 s⁻¹ | kon (hGITR.mFc): 1.68e+06 M⁻¹ s⁻¹ | t½ (hGITR.mFc): 6.4 min | Kd (mfGITR.mmh): 58.7 nM | koff (mfGITR.mmh): 0.0112 s⁻¹ | kon (mfGITR.mmh): 190000 M⁻¹ s⁻¹ | t½ (mfGITR.mmh): 1 min | fold activation, T-cell proliferation, 33 nM, FcgR anchored, donor 1 [4]: 1.2 fold | fold activation, T-cell proliferation, 33 nM, FcgR anchored, donor 2 [4]: 0.9 fold | fold activation, T-cell proliferation, 33 nM, FcgR anchored, donor 3 [4]: 1.2 fold | fold activation, T-cell proliferation, 33 nM, FcgR anchored, donor 4 [4]: 1.3 fold | fold activation, T-cell proliferation, 33 nM, FcgR anchored, donor 5 [4]: 1.1 fold | fold activation, T-cell proliferation, 33 nM, FcgR anchored, mean [4]: 1.1 fold | Average Signal (RLU) at 100 nM [5]: 10300 RLU | EC50 [5]: 0.7 nM | fold activation, T-cell proliferation, 22 nM, non-anchored, donor 1 [6]: 0.7 fold | fold activation, T-cell proliferation, 22 nM, non-anchored, donor 2 [6]: 1.2 fold | fold activation, T-cell proliferation, 22 nM, non-anchored, donor 3 [6]: 1 fold | fold activation, T-cell proliferation, 22 nM, non-anchored, donor 4 [6]: 0.9 fold | fold activation, T-cell proliferation, 22 nM, non-anchored, mean [6]: 0.9 fold
B2: H4H14516P (antibody, human IgG4, V domains shown)
VH: EVQLVESGGGLVQPGGSLRLSCAASGFTFSNYEMYWVRQAPGKGLEWVSYISSSGTTIYYADSVKGRFSVSRENARSSLYLQMNSLRVEDSAVYFCAKYNWNSFYGLDVWGQGTTVTVSS
VL: AIQMTQSPSSLSASVGDRVTITCRASQDIRNDLGWYQQKPGKAPKLLISAASSLQGGVPSRFSGSGSGTDFTLTISSLQPADFATYYCLQEYNYALTFGGGTKVEIK
notes: human IgG4 (H4H)

EC50, hGITR activation, NF-kB-Luc, FcgR anchored [1]: 0.02 nM | Fold Activation over basal signal, NF-kB-Luc, FcgR anchored [1]: 7 fold | IC50, blocking of hGITRL stimulation, NF-kB-Luc, FcgR anchored [1]: 0.1 nM | % Activation, NF-kB-Luc, non-anchored [2]: 20% | % Blocking, NF-kB-Luc, non-anchored [2]: 100% | EC50, hGITR activation, NF-kB-Luc, non-anchored [2]: 1.2 nM | IC50, blocking of hGITRL stimulation, NF-kB-Luc, non-anchored [2]: 0.7 nM | Average Signal (RLU) at 100 nM [5]: 4620 RLU | EC50 [5]: 0.25 nM
B3: H1H14512P (antibody, human IgG1, V domains shown)
VH: QVQLVESGGGVVQPGRSLRLSCAVSGFTLSSYGMDWVRQAPGKGLEWVAVIWYDGSNKYYSDSVKGRFTISRDNSKNTLFLQMNSLRADDTAVYYCARDGELGLDYYSGMDVWGQGTTVTVSS
VL: DIQMTQSPSSLSASVGDRVTITCRASQDIRNDLGWYQQKPGKAPKRLIYGASSLQSGVPSRFSGSGSGTEFTLTISSLQPEDFATYYCLQLNSYPRTFGQGTKVEIK
notes: human IgG1 (H1H)
